{"source": "the nanobody polyreactivity screen of Harvey et al. (2022)", "data": [{"test": "yeast display, Sf9 membrane polyspecificity reagent, FACS + sequencing; frameworks hold sequencing errors", "how_it_was_run": "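After 36–48 hours of galactose induction, yeast (Saccharomyces cerevisiae BJ5465) displaying a synthetic nanobody library were stained at 4 °C for 1 hour with 10% biotinylated, detergent-solubilized Sf9 membrane reagent. Streptavidin microbeads enriched the stained cells before FACS sorting into low and high (top ~1%) gates on anti-HA and streptavidin fluorescence. Each clone's polyreactivity label reflects its gate of origin.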", "values": [{"sequence": "QVQLVESCGGLVQPGGSLRLSCAASGSTFVNYAMGWYRQAPGKERELVAAITRGVRTYYADSVKGRFTISRDNAKNTVYLQMNSLKAEDTAVYYCNRAIGPYSYPDNYWGQGTQVTVSS", "polyreactivity (PSR sort gate)": "high polyreactivity"}, {"sequence": "QVQLVESGGGLVQAGGSLRLSCAASGYTFRYYAMGWYRQAHGKERELVDDINSGDITNYADSVKGRFTISRDNAKYTVYLQMNSLKTEDTAVYYCARRTFSLYDYWGQGTQVTVSS", "polyreactivity (PSR sort gate)": "low polyreactivity"}, {"sequence": "QVQLVESGGGLVQAGGSLRLSCAASGRTFANYAMGWYRQAPGKERELVATITWSDGSTYADSVKGRFTISRDNAKNTVYLQMNSLKPEDTAVYYCATRRYGKVFYPSQYTRYDYWGQGTQVTVSS", "polyreactivity (PSR sort gate)": "high polyreactivity"}, {"sequence": "QVQLVESGGGLVQAGGSLRLSCAASGSTFYGYAMGWYRQAPGKERELVAAISWSGASTYYADSVKGRFTISRDNAKNTVYLQMNSLKPDDTAVYYCNKRYRGYFNWPHGYWGQGTQVTVSS", "polyreactivity (PSR sort gate)": "high polyreactivity"}, {"sequence": "QVQLVESGGGLVQAGGRLRLSCAASGFIHYAMGWYRQAPGNERELVAAIRHSGGSTYYADSVKGRFTISRDNANNTVYIHMNSLKPEDTAVYYCAASRSGVGYRMQYWGQGTQVTVSS", "polyreactivity (PSR sort gate)": "low polyreactivity"}, {"sequence": "QVQLVESGGGLVQAGGSLRLSCASSGRTFYRYAMGWYRQAPGKERELVASITRRGGSTYYADSVKGRFTISRDNAKNTVYLQMNSLKPEDTAVYYCAKHSWPLDGGDYWGQGTQVTVSS", "polyreactivity (PSR sort gate)": "low polyreactivity"}, {"sequence": "QVQLVESGGGLVQAGGSLRLSCAASGSIFPYYAMGWYRQAPGKEREFVAAITISGGSTYYADSVKGRFTISRDNAKNTVYLQMNSLKPEDTAVYYCNADKGYVYGDTFYQSGGYYSWGQGTQVTVSS", "polyreactivity (PSR sort gate)": "low polyreactivity"}, {"sequence": "QVQLVETGGGLVQAGGSLRLSCAASGRIFGPNSKGWYRQAPGKEREFVASIRYSGGSTYYADSVKGRFTISRDYAKNTVYLQMHSLKPEDTAVYYCAARTVTLSYLYYYWGQGTHVTVSS", "polyreactivity (PSR sort gate)": "high polyreactivity"}, {"sequence": "QVQLVESGGGLVQAGGSLRLTCAASARIFGYYVMGWSRQAPGKETELVAAIRSSADSTYYADSVKGRFTISRDNAKNTVYLQMNSLKPEDTAVYYCAAQSPAYYTKSYWGQGTQVTVSS", "polyreactivity (PSR sort gate)": "low polyreactivity"}, {"sequence": "QVQLVESGGGLVQAGGSLRLSCAASGRIFAYYAMGWYRQAPGKERELVATISTGGGTYYADSVKGRFSISRDNAKNTVYLQMNSLKPEDTAVYYCAAAPYWYYGYYYWGQGTQVTVSS", "polyreactivity (PSR sort gate)": "high polyreactivity"}, {"sequence": "QVQLVESGGVLVQAGGSLRLTCAASGRTFGHYAMGWYRQAPGKERELVAANTSSAGRTRYADSVKGRFTISRDYAKNTVYLQMNSLKPEDTAVYYCAVAEGYSPAYLRDYWGQGTQVTVSS", "polyreactivity (PSR sort gate)": "high polyreactivity"}, {"sequence": "QVQLVESGGGLVQAGGSLRLSCAASGFIFVDNAMGWYRQAPRQERELVASITRGGSTDYADSVKGRFTISRDNAKNTVYLQRNSLKPEDTAVYYCAASWHRPAPDEGMDYWGQGTQVTVSS", "polyreactivity (PSR sort gate)": "low polyreactivity"}, {"sequence": "QVQLVESGGGLVQAGGSLRLTCAASGSIFVRNSMGWYRQAPGKERELVAAIIRSGGSTYYADSVKGRFTISRDNAKNTVYLQMNSLKPEDTAVYYCNALIRYNRYTGRDYWGQGTQVTVSS", "polyreactivity (PSR sort gate)": "high polyreactivity"}, {"sequence": "QVQLVESGGGLVQAGGSLRLSCAASGRTFAINTMGWYRQAPGKEREFVASITRRGGSTYYADSVKVRFTISLDNAKNTVYFQMNSLKPEDTAVYYCNAELRWRLRARAAYYYWGQGSQVTVSS", "polyreactivity (PSR sort gate)": "high polyreactivity"}, {"sequence": "QVQLVESAGGLVQAGGRLRVSCAASGFTFTLYAMGWYRQEPGKERELVAAINRSGGRTYYADSVKGRFTISRDNAKNTVYLQKNSLKPEDTAVYYCNKYPWPNYYDGEYDYWGQGTQVTVSS", "polyreactivity (PSR sort gate)": "high polyreactivity"}, {"sequence": "QVQLVESGGGLVQAGGSLRLSCAASGFIFWKNAMGWYRQAPGKERELVAAISWSGGRTYYADSVKGRFTISRDNAKNTVYLQMNSLKPEDTAVYYCNAAGRYKPGAPYDYWGQGTQVTVSS", "polyreactivity (PSR sort gate)": "low polyreactivity"}, {"sequence": "QVQLVESGGGLVQAGGSLRLSCAASGRIFLFYAMGWYRPAPGKERELVAAISVRGGSTYYADSVKGRFTISRDNAKNTVYLQMNSLKPEDTAVYYCAAKQKHTQQYGYWGQGTQVTVSS", "polyreactivity (PSR sort gate)": "high polyreactivity"}, {"sequence": "QVQLVESGGGLVQAGGSLRLSCAASGSIFTHYAMGWYRQAPGKERELVAAIARRGGSTYYADSVKGRFTISRDNAKNTVYLQMNSLKPEDTAVYYCAKSPDTAKEYDYWGQGTQVTVSS", "polyreactivity (PSR sort gate)": "high polyreactivity"}, {"sequence": "QVQLVESGGGLVQAGGSLRLSCAASGSIFYANAMGWYRQAPGKERELVAAISRSGGRTYYADSVKGRFTISRDNAKNTVYLQMNSLKPEDTAVYYCNAVYVSYTYQQTRSGGYDYWGQGTQVTVSS", "polyreactivity (PSR sort gate)": "high polyreactivity"}, {"sequence": "QVQLVESGGGLVQAGGRLRLSCAASGCTSGLNVRGWYRQAPGQERELVAAMSTGGGSTYYADSVKGPFTISRDNAKNTVYLQMTSLQPEDTAVYYCAADQSSVQDFIYNYWAQGTQVTVSS", "polyreactivity (PSR sort gate)": "low polyreactivity"}, {"sequence": "QVQLVESGGGLVQAGGSLRLSCAASGRTFNYYAMGWYRQAPGKERELVAAISASGGRTYYADSVKGRFTISRDNAKNTVYLQMNSLKPAETAVYYCAKVSSFDAQFDYWGQGTQVTVSS", "polyreactivity (PSR sort gate)": "high polyreactivity"}, {"sequence": "QVQLVDSRGGLVQAGGSLRLSCAASGRTLYSNAKGLSRQAPGKERDLVAAISGSGDTTYYADSVKGRFTISRDNAKNTVYLTMKSLKPEDTAVYYCAADHDSYGAGYEYCGQGTQVTVSS", "polyreactivity (PSR sort gate)": "low polyreactivity"}, {"sequence": "QVQLVESGGGLVQAGGSLRLSCAASGRIFKNYAMGWYRQAPGKERELVAAITWSGGRTYYADSVKGRFTISRDNAKNTVYLQMNSLKPEDTAVYYCATAARRGPNSIEPFGYGSWGQGTQVTVSS", "polyreactivity (PSR sort gate)": "high polyreactivity"}, {"sequence": "QVQLVESGGGLVQAGGSLRLSCAASGSLFPLYAMGWYRQAPGKERELVAAITWRGGSTYYADSVKGRFTISRDNAKNTVYLQMNSLKPEDTAVYYCNRDLVPRFDYWGQGTQVTVSS", "polyreactivity (PSR sort gate)": "low polyreactivity"}, {"sequence": "QVHLVESGGGLVQAGGSLRLSCYASGRIFRYYAMGWYRQPPGKERELVAVINCSGGSTYYAVSVKGRFTISRDNAKNSVYLQMNSLKPEDTAVYYCYVYSVYPQFNYWGQGTQVTVSS", "polyreactivity (PSR sort gate)": "high polyreactivity"}, {"sequence": "QFQLVESGGGLVQAGGSLRLSCAASGSILVPNDMGWYRQAPGKEREFVAAITESDGSTYYADSVKGRFTISRDNAKNTVYLQMNSLKPEDTAVYYCASDSTGVTFVHFDYWGQGTQVTVSS", "polyreactivity (PSR sort gate)": "low polyreactivity"}, {"sequence": "QVQLVESGGGLVQAGGSLRLSCAASGRIFSFNAMGCYRQATGKERELVAAISWSTGSTFYADSVKGRFTISRDYAKNTVFLQMNSLKPEDTAVYYCAREYYYRRGFFLRGYWGQGTQVTVSS", "polyreactivity (PSR sort gate)": "high polyreactivity"}, {"sequence": "QVQLVESGGGLVQAGGSLRLSCAASGYTFASYTLGWYRQAPGKERELVATISRGGGRTYYADSVKGRFTISRDNAKNTVYLQMNSLKPEDTAVYYCAARWWYYNGGRDYWGQGTQVTVSS", "polyreactivity (PSR sort gate)": "high polyreactivity"}, {"sequence": "QVQLVESGGGLVQAGGSLRLSCAASGSTFGFYAMGWYRPAPGKERELVAAISWSTTSTYYADSVKGRFTISRDNAKNTVYLQMNSLKPEDTAVYYCAAEEWYLWYYYWGQGTQVTVSS", "polyreactivity (PSR sort gate)": "high polyreactivity"}, {"sequence": "QVQLVESGGGLVQAGGSLSLSCAASGRIFADNAMGWYRQSPGKESELVADITYSGGSTYYAESVKGRFTISRDNAKNTLYLQMNSLNPEDTAFYYCAKQCVDYWGQGTQVTVSS", "polyreactivity (PSR sort gate)": "low polyreactivity"}, {"sequence": "QVQLVESGGGLVQAGGSLRLTCAASGRTFGTYVMGWYIQAPGKERELVATISRRGGTTYYADSVKGRFTISRDNAKNTVYLQMNSLKPVDNAVYYCAATYFGTRYDYWGQGTQVTVSS", "polyreactivity (PSR sort gate)": "high polyreactivity"}, {"sequence": "QVQLVESGGGLVQAGGSLRLRCDASGRTFFKNAMGWYRQAPGKERELVAAITSTGGRTYYADSVKGRFPISRDTAKNNVYVEMNSLKPEDTAVYYCAASNFYSGYYYWRQGTQVTVSS", "polyreactivity (PSR sort gate)": "high polyreactivity"}, {"sequence": "QVQLVESGGGLVQAGGSLRLICAASGSIFTYYVMGWYRQAPGKDRDLVAGISRAGSTNYADSVKGRFTISRDNAKNTVYLQMNSLKPEDTAVYYCAKSVWFVKHRKPHDYWGQGTQVTVSS", "polyreactivity (PSR sort gate)": "low polyreactivity"}, {"sequence": "QVQLVESGGGLVQAGGSLRLTCAASGRTFQYYAMGWYRQAPGKERELVAAISQDGGSTYYADSVKGRFTISRDNSKNSVYLQMNSLKPEDTAVYYCAARVDEYAYYALDDYWGQGTQVTVSS", "polyreactivity (PSR sort gate)": "low polyreactivity"}, {"sequence": "QVQLQESVGGLVQAGRSLRLSCAASGYISHADEMGWYRQAPGKEHELVASISNGGSTNYADSVKGRFTISRDNANNTVYLQMNSLKSVDTAVYFCAAWTGQVDIHYYWGQGTQVTVSS", "polyreactivity (PSR sort gate)": "low polyreactivity"}, {"sequence": "QVQLVESGGGLVQAGGSLRLSCAASGRTFYRSVMGWYRQAPGKERELVAAITPGGSTYADSVKGRFTISRDNAKKTVSLQMNSLKPEDTAVNYCNKRKASSSGYNYWGQVTQVTVSS", "polyreactivity (PSR sort gate)": "low polyreactivity"}, {"sequence": "QVQLVESGGGLVQAGGSLRLSCAASGRILSVYVMGWYRQAPGKERELVAAISRNGGRTYYADSVKGRFTISRDNAKNTVYLQMNSLKPEDTAVYYCAKSQRGTVYSYYYWGQGTQVTVSS", "polyreactivity (PSR sort gate)": "high polyreactivity"}, {"sequence": "QFQLVESGGGLVQAGGSLRLSCAASGRTFGRYTMGWYRPAPGKEREFVARINWNGGGTYYEDSVKGRFTISRDNAKNTVYLQMNSLKPEDTEVYYCNARKRGARFILGYDYSGQGTQVTVSS", "polyreactivity (PSR sort gate)": "low polyreactivity"}, {"sequence": "QVQLVESGGGLVQAGGSLRLSCAASGIILREYTMGWYRQAPGKERELVAAISGSGGSTYYADSVKGRFTISRDNAKNTVYLQMNSLKPDDTAVYYCNAVIAAKARDAVVGSGMDYWGQGTQVTVSS", "polyreactivity (PSR sort gate)": "high polyreactivity"}, {"sequence": "QVQLVESGGGIVQAGGSLRLSCAASGSTFLYYAMGWSRQAPGKEREFVAAISISGGSTYYADSVKGRFTISRDNAKNTVYLQMNSLKPEDTAVYYCAAEVGIVDYDYWGQGTQVTVSS", "polyreactivity (PSR sort gate)": "low polyreactivity"}, {"sequence": "QVQIVESGGGLVQAGGSLRLSCAASGSTINYNAMGWYRQAPGKERELVAAISTNGGSTYYADSVKGRFTISRDNAKNTVYLQMNSLKPEDTAVYYCNKVRKYSRHYDYWGQGTQVTVSS", "polyreactivity (PSR sort gate)": "high polyreactivity"}, {"sequence": "QVQLVESGGGLVQAVGSLRLICDASGSTFYKYSMGWYRQAPGKERELVAAITTSGTGTYYADSVKGRFTISRDNAKNTVYLEMNSLKPEDTGVYYCNARIVYRVGVSRMYYWGQGTQVTVSS", "polyreactivity (PSR sort gate)": "high polyreactivity"}, {"sequence": "QVQLVESGGGLVQAGGSLRLSCAASGFIFDYNTMGWYRQEPGKERELVADISGGGGRTYYADSVKGRFTISRDNAKNTVYLQMNSLKPEDTAVYYCAALGYYHHAWWISYDYWGQGTQVTVSS", "polyreactivity (PSR sort gate)": "low polyreactivity"}]}]}
